Data on eleven sequences can be found in the supplement of paper PMC9170038.

The data set has as its system K4 kissing-loop RNA reporter. Description: apparent KD of K4 kissing-loop reporter; higher = weaker reporter binding. The conditions noted are these: Eterna round: R107. The method, then:
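RNA-MaP round R107: designed RNA switches with theophylline, tryptophan, arginine or FMN aptamers are transcribed on-chip within common flanks. They are titrated with a labelled K4 kissing-loop RNA reporter in RNA-MaP buffer (100 mM Tris pH 7.5, 80 mM KCl, 4 mM MgCl2), without ligand or with the indicated ligand. Median apparent KD per design.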

Where [1] appears, read: input ligand: theophylline 20 uM.
The mark [2] stands for this setting: input ligand: tryptophan 2.4 mM.
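Further: bound reporter read as fluorescence of individual clusters on recovered sequencing chips by microscopy, with normalized cluster intensities fitted with a binding model.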

As to “AUGGCACCUGCGGCCGCCACUCACUCCGGGCUGCUGGCCAGUGAUGUUGGUACGGCUGCCGGUUAGAGGACCGGGCAGGAGCUAA [Rienisdite]”, the “apparent KD of K4 kissing-loop reporter” value was determined as 88.8 nM (input ligand: FMN 200 uM); 103 nM (input ligand: arginine 13.2 mM); 107 nM (input ligand: none); 97.8 nM under setting [1]; 90.7 nM under setting [2].
Turning to “AUGGGCGAGGUAACGUGGAUAUCUCGUCGCAAGGAUAUCUGGAAACAGAGAAGGUGCUACAUUACCGGCAGUGAUGUUGCUGACC”, the “apparent KD of K4 kissing-loop reporter” value runs as follows: (input ligand: FMN 200 uM) 959 nM; (input ligand: arginine 13.2 mM) 231 nM; (input ligand: none) 559 nM; under setting [1], 263 nM; under setting [2], 131 nM.
As to “AUGGUAUUGCGAGGAUAUCCUUCCCACGUCGAAGUACCGUGCUUGAUGGAGUGAUGUUCGAUCAGAGGAGAAGGCGCGGUGUUAU [Same State FMN B GF22]”, the “apparent KD of K4 kissing-loop reporter” value came out at 706 nM (input ligand: FMN 200 uM); 368 nM (input ligand: arginine 13.2 mM); 572 nM (input ligand: none); 645 nM under setting [1]; 639 nM under setting [2].
Consider “AUGUACACGAUAGUGUACUCCUAGUGAUGUUAGGAUAUGCAGAUAUGCAGAAGGGACAAGUCAUCUGACAAUAGUCGGAUGACAA [FmnAX 10 #OpenEnded #K4Early]”, for which the “apparent KD of K4 kissing-loop reporter” value by setting is: (input ligand: FMN 200 uM) 179 nM; (input ligand: arginine 13.2 mM) 85.6 nM; (input ligand: none) 109 nM; under setting [1], 114 nM; under setting [2], 91.5 nM.
As for “AUGUAUAUCUCAGGAUAUAUAUGUGUGUGGUGUAUACAUAGUGAUGUUGUGUAUAUCCACAUAUGUAUAGAAGGGAGAUGUGCAU [Skye_SS_FMNB]”, the “apparent KD of K4 kissing-loop reporter” value turned out to be 76.3 nM (input ligand: FMN 200 uM); 73.5 nM (input ligand: arginine 13.2 mM); 73.9 nM (input ligand: none); 66 nM under setting [1]; 72 nM under setting [2].
On the same counts, the results for “AUGUGGAGCGACGUUUAGAGAAACCGGGAAGGAGCGCGGAUAACCGCAGGUAGGUCGCCUGGUUGCCAGUGAUGUUGGCGACGUG [Exclusion Arg A GF 25]” are 87.4 nM, 222 nM, 144 nM, 96 nM and 138 nM.
Turning to “AUGUUUUAUAAACUCAUGGUUUCGACAGAUACCAGCUUCGAGAGGAGCCCUUGGCAGCUGCAUGAGUGAUGUUCAUGUACGAAGA [KL-XTheoA7]”, the “apparent KD of K4 kissing-loop reporter” value was found to be 374 nM (input ligand: FMN 200 uM); 356 nM (input ligand: arginine 13.2 mM); 465 nM (input ligand: none); 415 nM under setting [1]; 265 nM under setting [2].
For the sequence “AUUAAUAACUGAGGAUAUCGUUUUACUGUAGUGAUGUUACAGAAAAUGCACAUUAUAAUUUCUAUUCGAGAAGGCAGAAUAAUUA [JR_ExcFMNB_Sub013]”, the “apparent KD of K4 kissing-loop reporter” value (input ligand: FMN 200 uM) was found to be 110 nM; the “apparent KD of K4 kissing-loop reporter” value (input ligand: arginine 13.2 mM) was 75.5 nM; the “apparent KD of K4 kissing-loop reporter” value (input ligand: none) was 74.5 nM; the “apparent KD of K4 kissing-loop reporter” value under setting [1] came to 74.1 nM; the “apparent KD of K4 kissing-loop reporter” value under setting [2] amounted to 65.4 nM.
Consider “AUUAAUUUCAGAGGAUAUCGUAAUUUUAUUUAAUUUAUUCAUUUAUGCAGUGAUGUUGCUAAUAUUCGAGAAGGCUGAUUUAUAA [JR_ExcFMNB_Sub007]”, for which the “apparent KD of K4 kissing-loop reporter” value reads like this: (input ligand: FMN 200 uM) 103 nM; (input ligand: arginine 13.2 mM) 121 nM; (input ligand: none) 55.8 nM; under setting [1], 115 nM; under setting [2], 52.2 nM.
As to “AUUAAUUUCAGAGGAUAUCGUAAUUUUAUUUUAUUUUUUCAUUUAUGCAGUGAUGUUGCAUUUAUUCGAGAAGGCUGAUUUAUAA [JR_SSFMNB_Sub021]”, the “apparent KD of K4 kissing-loop reporter” value is, setting by setting: (input ligand: FMN 200 uM) 65.7 nM; (input ligand: arginine 13.2 mM) 74.4 nM; (input ligand: none) 40.8 nM; under setting [1], 69.6 nM; under setting [2], 50.7 nM.
In the case of “AUUAAUUUCAGAGGAUAUGCUUAAUUGAUUAAAUAUAAUCUAUUAUGCAGUGAUGUUGCAUUUUUUGCAGAAGGCUGAUUUAUAA [JR_SSFMNB_Sub017]”, the “apparent KD of K4 kissing-loop reporter” value stood at 136 nM (input ligand: FMN 200 uM); 500 nM (input ligand: arginine 13.2 mM); 506 nM (input ligand: none); 485 nM under setting [1]; 385 nM under setting [2].
